Assay results published in US20220251237A1 (R P SCHERER TECHNOLOGIES, published 2022).

Legend:
[1] = target: T1, human glypican-3-His (R&D Systems) (human, UniProt P51654 25-559); assay: ELISA, plate coated with 1 µg/mL human glypican-3-His
T1 construct: Bought His-tagged protein; also called recombinant human glypican-3 protein; GPC3; not shown: His tag
Method: (§1) To perform the ELISA, Maxisorp 96-well plates (Nunc) were coated overnight at 4° C. with 1 μg/mL of human glypican-3-His (R&D Systems) in PBS. The plate was blocked with casein buffer (ThermoFisher), and then CAT-07 was plated in an 11-step series of 2-fold dilutions starting at 150 ng/mL. The plate was incubated, shaking, at room temperature for 2 h. After washing in PBS 0.1% Tween-20, bound analyte was detected with a donkey anti-human Fc-γ-specific horseradish peroxidase (HRP)-conjugated secondary antibody. Signals were visualized with Ultra TMB (Pierce) and quenched with 2 N H₂SO₄. Absorbance at 450 nm was determined using a Molecular Devices SpectraMax M5 plate reader and the data were analyzed using GraphPad Prism.

[2] = target: T2, human glypican-1 His-tagged protein (R&D Systems) (human, UniProt P35052 24-530, limits assumed); assay: ELISA, plate coated with 1 µg/mL His-tagged glypican
T2 construct: Bought; not shown: His tag
T2 sequence (looked up): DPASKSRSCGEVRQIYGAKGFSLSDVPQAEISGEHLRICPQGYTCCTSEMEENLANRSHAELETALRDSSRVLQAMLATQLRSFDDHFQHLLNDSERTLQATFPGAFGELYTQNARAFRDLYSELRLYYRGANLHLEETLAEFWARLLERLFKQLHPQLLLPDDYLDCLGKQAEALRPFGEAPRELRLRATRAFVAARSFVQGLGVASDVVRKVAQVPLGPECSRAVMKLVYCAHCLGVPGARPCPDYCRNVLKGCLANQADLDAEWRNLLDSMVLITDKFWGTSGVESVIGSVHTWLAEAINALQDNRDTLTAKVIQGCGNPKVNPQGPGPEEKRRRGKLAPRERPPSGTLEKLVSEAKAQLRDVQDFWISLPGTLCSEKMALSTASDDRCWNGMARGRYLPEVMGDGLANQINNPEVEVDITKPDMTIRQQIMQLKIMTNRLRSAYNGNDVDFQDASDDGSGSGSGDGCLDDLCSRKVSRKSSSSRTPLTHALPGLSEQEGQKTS
Method: as §1, with “of human glypican His-tagged proteins (glypican-1, glypican-2, glypican-3, glypican-5, and glypican-6 all from R&D Systems) in” for “of human glypican-3-His (R&D Systems) in”, “PBS. The plates were blocked with” for “PBS. The plate was blocked with”, “ng/mL. The plates was incubated,” for “ng/mL. The plate was incubated,”

[3] = target: T3, human glypican-5 His-tagged protein (R&D Systems) (human, UniProt P78333 25-551, limits assumed); assay: as above
T3 construct: Bought; not shown: His tag
T3 sequence (looked up): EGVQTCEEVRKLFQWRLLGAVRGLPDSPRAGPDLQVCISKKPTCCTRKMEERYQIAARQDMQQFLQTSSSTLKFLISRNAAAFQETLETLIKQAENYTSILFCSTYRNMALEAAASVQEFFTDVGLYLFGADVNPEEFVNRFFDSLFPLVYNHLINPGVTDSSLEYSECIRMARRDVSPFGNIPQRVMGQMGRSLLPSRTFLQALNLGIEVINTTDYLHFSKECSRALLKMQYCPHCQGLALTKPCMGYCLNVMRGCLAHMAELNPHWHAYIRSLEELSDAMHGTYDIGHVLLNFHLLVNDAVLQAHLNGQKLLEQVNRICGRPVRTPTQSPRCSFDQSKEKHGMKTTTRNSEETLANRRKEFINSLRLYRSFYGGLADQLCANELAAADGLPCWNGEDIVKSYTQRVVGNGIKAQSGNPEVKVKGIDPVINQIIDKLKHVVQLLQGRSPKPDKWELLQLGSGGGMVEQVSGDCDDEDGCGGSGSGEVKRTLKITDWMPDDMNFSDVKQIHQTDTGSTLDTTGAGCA
Method: as §1, with “of human glypican His-tagged proteins (glypican-1, glypican-2, glypican-3, glypican-5, and glypican-6 all from R&D Systems) in” for “of human glypican-3-His (R&D Systems) in”, “PBS. The plates were blocked with” for “PBS. The plate was blocked with”, “ng/mL. The plates was incubated,” for “ng/mL. The plate was incubated,”

[4] = target: T4, human glypican-6 His-tagged protein (R&D Systems) (human, UniProt Q9Y625 24-529, limits assumed); assay: as above
T4 construct: Bought; not shown: His tag
T4 sequence (looked up): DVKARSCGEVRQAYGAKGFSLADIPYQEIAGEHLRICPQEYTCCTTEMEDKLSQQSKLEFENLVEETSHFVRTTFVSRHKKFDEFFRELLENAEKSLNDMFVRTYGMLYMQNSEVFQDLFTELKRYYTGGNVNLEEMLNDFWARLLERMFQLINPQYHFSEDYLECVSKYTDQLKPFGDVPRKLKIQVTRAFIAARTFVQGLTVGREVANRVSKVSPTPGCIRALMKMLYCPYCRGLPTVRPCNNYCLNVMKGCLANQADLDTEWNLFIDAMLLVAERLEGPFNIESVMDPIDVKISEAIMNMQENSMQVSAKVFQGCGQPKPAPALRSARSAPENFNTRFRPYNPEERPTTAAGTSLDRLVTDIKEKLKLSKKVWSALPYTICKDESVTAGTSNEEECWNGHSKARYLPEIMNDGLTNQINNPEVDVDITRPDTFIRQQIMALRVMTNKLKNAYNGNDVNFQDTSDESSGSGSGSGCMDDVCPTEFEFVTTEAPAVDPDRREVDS
Method: as §1, with “of human glypican His-tagged proteins (glypican-1, glypican-2, glypican-3, glypican-5, and glypican-6 all from R&D Systems) in” for “of human glypican-3-His (R&D Systems) in”, “PBS. The plates were blocked with” for “PBS. The plate was blocked with”, “ng/mL. The plates was incubated,” for “ng/mL. The plate was incubated,”

[5] = target: T5, human glypican-2 His-tagged protein (R&D Systems) (human, UniProt Q8N158 24-554, limits assumed); assay: as above
T5 construct: Bought; not shown: His tag
T5 sequence (looked up): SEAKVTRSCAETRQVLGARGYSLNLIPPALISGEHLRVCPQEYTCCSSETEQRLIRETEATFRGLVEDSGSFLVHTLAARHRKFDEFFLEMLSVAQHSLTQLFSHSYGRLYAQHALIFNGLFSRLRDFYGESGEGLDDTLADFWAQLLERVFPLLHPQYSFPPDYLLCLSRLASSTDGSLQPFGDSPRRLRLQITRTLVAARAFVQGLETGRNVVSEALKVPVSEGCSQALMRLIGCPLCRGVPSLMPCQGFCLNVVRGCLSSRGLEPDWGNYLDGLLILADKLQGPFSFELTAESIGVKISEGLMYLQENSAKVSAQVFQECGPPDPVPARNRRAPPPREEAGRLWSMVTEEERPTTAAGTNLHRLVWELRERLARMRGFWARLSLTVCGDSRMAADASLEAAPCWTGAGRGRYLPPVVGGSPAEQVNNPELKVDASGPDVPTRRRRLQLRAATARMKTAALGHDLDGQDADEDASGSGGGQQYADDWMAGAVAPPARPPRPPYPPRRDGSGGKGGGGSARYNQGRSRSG
Method: as §1, with “of human glypican His-tagged proteins (glypican-1, glypican-2, glypican-3, glypican-5, and glypican-6 all from R&D Systems) in” for “of human glypican-3-His (R&D Systems) in”, “PBS. The plates were blocked with” for “PBS. The plate was blocked with”, “ng/mL. The plates was incubated,” for “ng/mL. The plate was incubated,”

T1 sequence (P51654 25-559 limits assumed): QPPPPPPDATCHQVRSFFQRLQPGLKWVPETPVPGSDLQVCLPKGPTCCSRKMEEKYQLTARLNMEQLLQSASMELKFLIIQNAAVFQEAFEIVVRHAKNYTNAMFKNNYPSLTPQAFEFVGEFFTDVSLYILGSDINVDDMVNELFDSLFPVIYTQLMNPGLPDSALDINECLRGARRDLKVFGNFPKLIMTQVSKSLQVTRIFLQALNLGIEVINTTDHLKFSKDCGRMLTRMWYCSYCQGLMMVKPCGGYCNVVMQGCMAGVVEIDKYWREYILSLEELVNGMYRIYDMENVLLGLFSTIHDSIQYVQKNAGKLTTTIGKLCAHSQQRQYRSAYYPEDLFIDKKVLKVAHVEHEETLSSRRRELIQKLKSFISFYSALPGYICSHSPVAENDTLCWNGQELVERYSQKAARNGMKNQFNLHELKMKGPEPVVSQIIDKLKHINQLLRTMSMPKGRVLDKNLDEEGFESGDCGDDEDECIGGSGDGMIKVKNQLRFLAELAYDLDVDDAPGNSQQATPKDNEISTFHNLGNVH

binding result [1]: binds
B1: CAT-07 monoclonal antibody (antibody, human IgG1, kappa, V domains shown)
VH: QVQLVQSGAEVKKPGASVKVSCKASGYTFTSYFLHWVRQAPGQGLEWMGIIDPPTGRTTYAQKFQGRVTMTRDTSTSTVYMELSSLRSEDTAVYYCARGNYGGRYFDYWGQGTLVTVSS
VL: not shown
binding result [2]: no binding (tested: 2-fold dilutions starting at 150 ng/mL) | binding result [3]: no binding (tested: 2-fold dilutions starting at 150 ng/mL) | binding result [4]: no binding (tested: 2-fold dilutions starting at 150 ng/mL) | binding result [5]: no binding (tested: 2-fold dilutions starting at 150 ng/mL)
